Test results reported in PMC5701133 (Scientific Reports, 2017).

Target: T1, BRD4 ET domain (residues M610-R676) (human, UniProt O60885 610-676, uniformly 15N-labelled for the NMR titrations)
T1 construct: human BRD4, extraterminal (ET) domain, residues 610-676; also called extraterminal (ET) domain of BRD4; source: E. coli BL21-CodonPlus (pRIL), purified (HiTrap IMAC, Superdex)
Test: ITC; MicroCal auto-ITC200, 20 °C, PBS pH 7.4 with 0.5 mM dithiothreitol; protein (0.5 mM) in the cell, peptide (7.5 mM) in the syringe; one set of sites model
Conditions: both partners purified

Kd: 675 ± 66 µM
B1: JMJD6 peptide W85A (peptide, UniProt Q6NYC1 84-96, looked up)
peptide: KATLERLKRKYRN
notes: JMJD6 residues 84-96 with W85A; also called W85A peptide
